Data from patent publication US9603896B2, “Peptide compounds and methods of production and use thereof” (priority 2012, dated 2017).
Ends that are not written are not given here.

Assays:
[1] = type: physicochemical
From the text: In the initial stages of the work leading to the presently disclosed and claimed inventive concept(s), sequential addition of amino acids was used to make the peptides. Three candidate peptides (CAP3720-44 (SEQ ID NO:1), CAP3720-44ser26 (SEQ ID NO:2), and CAP3720-44ser42 (SEQ ID NO:5)) were synthesized. […] In one embodiment, a fragment Fmoc condensation strategy was used rather than sequential addition of amino acids. In the fragment condensation method, three small fragments were made and condensed together to form a CAP3720-44ser42 amino acid sequence (SEQ ID NO:5). The rationale behind this reasoning was that three small fragments could be synthesized in a highly purified form and linked together, thereby overcoming some of the aggregation problems. The product from this synthesis was dialyzed against 1% acetic acid and lyophilized and determined to be approximately 50% pure. Antimicrobial activity of this peptide was approximately half of what was normally obtained. In one embodiment, the dialysis procedure was changed to employ a dilute tri-fluoro acetic acid (TFA) solution (e.g., 0.1%), which obtained a product with stronger antimicrobial activity and greater purity (about 80%). In the next production, a cysteine residue was used that was protected during synthesis and then de-protected in the final stages of purification, in an attempt to improve stability.
When the arginines were linked to the peptide to form the peptide backbone (SEQ ID NOs: 18-20), there was marked increase in solubility of the peptides and very potent activity (capable of reducing bacterial load from 1×10^6 CFU/ml to […] CFU/ml, a 5 log reduction). […] Much time and experimental effort was spent in the laboratory exploring purification techniques, but yield and purity could not be increased beyond about 70%. […] Finally, after extensive additional experimentation, another solubilizing moiety was added to the peptides, and this addition increased half-life, solubility, and purity of the peptides. […]

[2] = tested on: Pseudomonas clinical isolate B64; test: BIOSCREEN C™ growth assay, antibiotic and peptide combinations; type: cell-based, Pseudomonas aeruginosa
Method: Cefotaxime (Cefo) and peptide combinations included a constant amount of Cefotaxime (2.81 μg/ml) with suboptimal amounts of peptide (0, 0.34, 1.01, and 3.04 μg/ml).
The peptide and antibiotics were set up in the wells of the microtiter plate at starting ratios of MIC equivalents of antibiotic:peptide at 3:1, 1:1, and 1:3. They were serially diluted to concentrations well below suboptimal/sublethal levels of the antibiotic and peptide. The organism was added (1×10^5 CFU/well), the BIOSCREEN C™ assay (Growth Systems USA, Piscataway, N.J.) was performed, and data was collected over 24 hours.

mouse cornea = test: In vivo model of corneal wound healing (corneal epithelial abrasion)
Method: The in vivo model of wound healing was carried out using a disposable biopsy punch (2 mm, Miltex, York, Pa.) to demarcate the mouse cornea and a 0.5 mm burr using the AlgerBrush II (The Alger Company, Inc., Lago Vista, Tex.) to remove the corneal epithelium. The corneal abrasions were treated at 0 and 16 hours with peptide 95-122 (10^−5 M), peptide 120-146WH (10^−6 M and 10^−8M), peptide 120-146WR ((10^−6 M and 10^−8M), or vehicle control (0.9% sodium chloride, pH 5.5, Baxter, Deerfield, Ill.). Corneal abrasions were visualized using sterile fluorescein sodium ophthalmic strips USP (Fluorets®, Chauvin Laboratory, Aubenas, France) dampened with sterile PBS. Images were taken at 0, 16, and 24 hours immediately following fluorescein staining.
Mice were anesthetized using ketamine (100 mg/kg; Bionichepharma, LLC., St. Lake Forrest, Ill.) and xylazine ([…]; Rompun; Bayer Corp., Shawnee Mission, Kans.), and the right cornea was wounded as follows. A disposable biopsy punch (2 mm, Miltex, York, Pa.) was used to demarcate the mouse cornea. The corneal epithelium was carefully removed within the 2 mm demarcated area with a 0.5 mm burr using the AlgerBrush II (The Alger Company, Inc., Lago Vista, Tex.). The corneal abrasions were treated at 0 and 16 hours with HB-EGF (250 ng/ml), rCAP37 (250 ng/ml), or vehicle control (0.9% sodium chloride, pH 5.5, Baxter, Deerfield, Ill.). Corneal abrasions were visualized using sterile fluorescein sodium ophthalmic strips USP (FLUORETS®, Chauvin Laboratory, Aubenas, France) dampened with sterile PBS. Images were taken at 0, 16, 24, and 48 hours immediately following fluorescein staining using a surgical microscope equipped with a camera (Carl Zeiss OPMI VISU 140, Carl Zeiss Surgical, Inc., Oberkochen, Germany). The areas of the open wound were quantitated using ImageJ software (US National Institutes of Health), and the results were reported as the percentage of wound closure.
Whole mouse eyes were collected for histology at 0, 6, 16, 24, and 48 hours post wounding and were immediately placed in Prefer fixative (Anatech LTD., Battle Creek, Mich.) for 20 minutes before being transferred to 70% ethanol. Tissues were paraffin-embedded and cut at a thickness of 5 μm, mounted on SUPERFROSTPLUS® slides (Statlab Medical Products, Lewisville, Tex.), and subsequently deparaffinized, rehydrated, and washed in deionized water. Sections were stained with hematoxylin (Leica Microsystems, Buffalo Grove, Ill.) and rinsed twice in deionized water before being washed in Blue Buffer (Leica Microsystems). The sections were finally washed in deionized water and 95% ethanol prior to being counterstained with eosin (Leica Microsystems). Sections were dehydrated in ethanol and cleared in xylene.

[3] = tested on: human corneal epithelial cell (HCEC); test: HCEC chemotaxis, modified Boyden chemotaxis chamber assay; type: cell-based; conditions: 120-146QH at 10^−4, 10^−6, 10^−8, 10^−10 M; 120-146QR at 10^−6, 10^−8 M; HB-EGF 50 ng/ml; rCAP37 250 ng/ml; 3 hours at 37° C
Method: The effect of buffer control (0.1% BSA in Gey's buffer), heparin binding-epidermal growth factor (HB-EGF, 50 ng/ml), recombinant CAP37 (rCAP37, 250 ng/ml), 120-146QH (10^−12M, 10^−10 M, 10^−8 M, 10^−6M, and 10^−4M,) and 120-146QR (10^−10M, 10^−8M, 10^−6M, and 10^−4M) on HCEC chemotaxis was determined by the modified Boyden chemotaxis chamber method. HCEC chemotaxis was measured in response to HB-EGF, rCAP37, and peptides 120-146QH (SEQ ID NO:29) and 120-146QR (SEQ ID NO:28) after incubation for 3 hours at 37° C. Chemotaxis is expressed as a percent migration. The buffer control (no chemoattractant) is arbitrarily assigned the value of 100% migration. Data are expressed as means±SEM and are calculated from 6 observations for each test point. **P<0.01 by Wilcoxon signed-rank test as compared to controls.
Chemotaxis assays were performed using the modified Boyden chemotaxis chamber assay. Peptide 120-146QH was used at 10^−4 M, 10^−6 M, 10^−8 M, 10^−10 M, and 10^−12 M, and peptide 120-146QR was used at 10^−4 M, 10^−6M, 10^−8M, and 10^−10 M.

HCEC monolayers = test: In vitro scratch assay of wound closure in HCEC monolayers; type: cell-based, human
Method: An in vitro scratch assay was used in order to determine the ability of rCAP37 to facilitate corneal wound healing. Human corneal epithelial cells were cultured as described above until they reached a confluent monolayer. Each monolayer was scratched using a 10 μl pipette tip to create two perpendicular lines. Monolayers were treated with heparin binding-epidermal growth factor (HB-EGF, 250 ng/ml; Becton Dickinson), rCAP37 (25-2000 ng/ml), or basal KSFM (Gibco). Wound closure was monitored at 0, 18, 24, and 48 hours utilizing a camera-equipped inverted microscope (TE2000-E; Nikon, Melville, N.Y.). Time-lapse images of in vitro wound closure were obtained using a camera-equipped inverted microscope (TE2000-E; Nikon) from 0-18 hours. HCEC monolayers were treated with HB-EGF, rCAP37, and basal KSFM as described above. The width of each scratch was quantitated using ImageJ software (US National Institutes of Health, Bethesda, Md.). Results are presented as the percentage of wound closure.

Molecule: NQGRHFCGGALIHARFVMTAASCFQ (listed as Homo sapiens) [CAP3720-44]
- solubility [1]: relatively insoluble

Molecule: CO/N=C(\C(=O)N[C@@H]1C(=O)N2C(C(=O)O)=C(COC(C)=O)CS[C@H]12)c1csc(N)n1 [Cefotaxime, reference compound]
- bactericidal impact of antibiotic alone ([2]; 2.8 μg/ml): very little bactericidal impact

Molecule: NQGRHFSGGALIHARFVMTAASCFQ [CAP3720-44ser26]
- solubility [1]: relatively insoluble

Molecule: C[C@H]1COc2c(N3CCN(C)CC3)c(F)cc3c(=O)c(C(=O)O)cn1c23 [Levofloxacin, reference compound]
- MIC of Levofloxacin in combination with peptide ([2]; in the presence of 3.04 μg/ml of the peptide BCC02-5RMP): 3.5 µg/mL

Molecule: NQGRHFCGGALIHARFVMTAASSFQ [CAP3720-44ser42]
- solubility [1]: relatively insoluble

B1: heparin binding-epidermal growth factor (protein, UniProt Q99075 63-148, looked up)
Heparin-binding EGF-like …: DLQEADLDLLRVTLSSKPQALATPNKEEHGKRKKKGKGLGKKRDPCLRKYKDFCIHGECKYVKELRAPSCICHPGYHGERCHGLSL
notes: positive control growth factor
- closure of wounds compared to the buffer control (mouse cornea; 250 ng/ml at 0 and 16 hours): significantly higher
- migration of HCECs vs buffer control [3]: significant increase in migration
- time to complete closure of scratch wounds (HCEC monolayers; 250 ng/ml): ≤ 24 h
- percentage wound closure (HCEC monolayers; 250 ng/ml, at 18 hours): ~88%

B2: CAP37: cationic antimicrobial protein of Mr 37 kDa; recombinant CAP37 produced in HEK 293 cells (protein)
chain: IVGGRKARPRQFPFLASIQNQGRHFCGGALIHARFVMTAASCFQSQNPGVSTVVLGAYDLRRRERQSRQTFSISSMSENGYDPQQNLNDLMLLQLDREANLTSSVTILPLPLQNATVEAGTRCQVAGWGSQRSGGRLSRFPRFVNVTVTPEDQCRPNNVCTGVLTRRGGICNGDGGTPLVCEGLAHGVASFSLGPCGRGPDFFTRVALFRDWIDGVLNNPGP
- reduction of wound size (wound closure) (mouse cornea; 16 hours, 250 ng/ml topical at 0 and 16 hours): 71%
- re-epithelialization (H&E histology) vs vehicle-treated wounds (mouse cornea; 24 hours, 250 ng/ml): greatly accelerated
- wound closure (mouse cornea; 24 hours, 250 ng/ml topical at 0 and 16 hours): 83%
- structural integrity of epithelium (H&E histology) (mouse cornea; 48 hours, 250 ng/ml): regained full integrity
- migration of HCECs vs buffer control [3]: significant increase in migration
- percentage wound closure (HCEC monolayers; 250 ng/ml, at 18 hours): ~71%
- percentage wound closure (HCEC monolayers; 500 ng/ml): approximately 62%
